# Assay results from patent US20160168251A1 (MorphoSys, published 2016).
# T1: human NPRA on HEK293 cells, without added ligand (human, UniProt P16066 33-1061)
# T1 construct: a signal peptide is not delimited; also called HEK NPRA cells; HEK hNPRA cells
# T1 sequence: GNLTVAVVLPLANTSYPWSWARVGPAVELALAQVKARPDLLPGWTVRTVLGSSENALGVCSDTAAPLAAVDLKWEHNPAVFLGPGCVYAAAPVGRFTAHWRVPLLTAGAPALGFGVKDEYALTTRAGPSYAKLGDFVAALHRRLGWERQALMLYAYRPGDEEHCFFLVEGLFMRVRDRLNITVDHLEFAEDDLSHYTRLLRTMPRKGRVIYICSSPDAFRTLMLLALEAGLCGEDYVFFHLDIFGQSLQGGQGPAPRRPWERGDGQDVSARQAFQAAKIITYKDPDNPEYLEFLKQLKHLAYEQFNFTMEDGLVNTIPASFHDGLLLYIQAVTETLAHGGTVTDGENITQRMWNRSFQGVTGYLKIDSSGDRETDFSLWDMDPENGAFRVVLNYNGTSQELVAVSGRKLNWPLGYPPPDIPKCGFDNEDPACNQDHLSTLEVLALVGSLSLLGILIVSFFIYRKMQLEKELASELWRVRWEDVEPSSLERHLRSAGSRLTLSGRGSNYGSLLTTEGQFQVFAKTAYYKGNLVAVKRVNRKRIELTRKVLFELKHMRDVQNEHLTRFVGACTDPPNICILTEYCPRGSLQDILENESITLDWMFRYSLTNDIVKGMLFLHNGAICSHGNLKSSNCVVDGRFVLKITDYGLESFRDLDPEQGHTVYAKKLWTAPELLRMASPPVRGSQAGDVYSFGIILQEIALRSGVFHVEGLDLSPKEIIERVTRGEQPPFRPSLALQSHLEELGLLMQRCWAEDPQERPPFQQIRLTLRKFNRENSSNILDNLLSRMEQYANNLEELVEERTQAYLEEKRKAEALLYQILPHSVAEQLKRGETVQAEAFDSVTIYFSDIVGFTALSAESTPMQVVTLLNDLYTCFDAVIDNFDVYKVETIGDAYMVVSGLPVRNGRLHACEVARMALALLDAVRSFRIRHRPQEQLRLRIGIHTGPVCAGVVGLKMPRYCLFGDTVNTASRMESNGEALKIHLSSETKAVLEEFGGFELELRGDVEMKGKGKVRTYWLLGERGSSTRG
# T2: rat NPRA on HEK cells bound to ANP (rat, UniProt P18910 29-1057; P01161 123-150)
# T2 construct: whole, on cells;mature; also called HEK293T-GCA
# T2 sequence (looked up): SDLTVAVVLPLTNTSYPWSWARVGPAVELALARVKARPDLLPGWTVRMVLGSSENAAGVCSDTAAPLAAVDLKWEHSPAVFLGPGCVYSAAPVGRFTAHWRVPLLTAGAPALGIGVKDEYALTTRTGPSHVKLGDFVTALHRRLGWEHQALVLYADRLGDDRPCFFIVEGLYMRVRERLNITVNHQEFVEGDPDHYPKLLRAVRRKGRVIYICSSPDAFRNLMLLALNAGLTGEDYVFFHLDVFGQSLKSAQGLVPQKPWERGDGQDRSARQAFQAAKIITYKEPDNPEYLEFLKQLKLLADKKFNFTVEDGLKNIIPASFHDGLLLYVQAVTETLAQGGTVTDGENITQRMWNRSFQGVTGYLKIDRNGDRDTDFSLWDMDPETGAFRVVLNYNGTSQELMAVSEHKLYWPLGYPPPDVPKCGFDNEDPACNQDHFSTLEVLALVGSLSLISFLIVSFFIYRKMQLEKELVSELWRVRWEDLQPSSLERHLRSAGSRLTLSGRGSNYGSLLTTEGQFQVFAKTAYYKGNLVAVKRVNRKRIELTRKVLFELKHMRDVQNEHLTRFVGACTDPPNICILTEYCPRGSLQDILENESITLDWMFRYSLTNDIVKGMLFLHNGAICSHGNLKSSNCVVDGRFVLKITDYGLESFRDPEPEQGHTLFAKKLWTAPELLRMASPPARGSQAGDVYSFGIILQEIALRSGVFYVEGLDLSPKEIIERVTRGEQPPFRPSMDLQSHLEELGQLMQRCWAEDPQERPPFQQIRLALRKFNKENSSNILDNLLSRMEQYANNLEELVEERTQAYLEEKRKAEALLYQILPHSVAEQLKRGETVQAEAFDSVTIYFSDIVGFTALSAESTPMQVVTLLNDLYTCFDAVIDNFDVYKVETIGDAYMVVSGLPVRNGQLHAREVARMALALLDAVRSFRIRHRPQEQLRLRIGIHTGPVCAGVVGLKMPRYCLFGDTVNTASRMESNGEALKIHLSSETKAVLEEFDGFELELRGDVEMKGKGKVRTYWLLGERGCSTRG
# T2 sequence (peptide, looked up): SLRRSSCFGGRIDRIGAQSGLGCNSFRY
# T3: human NPRA on HEK293 cells bound to ANP (human, UniProt P01160 124-151)
# T3 construct: mature; Receptor-ligand complex on cells; also called HEK NPRA cells loaded with ANP; ANP-NPRA complex
# T3 sequence: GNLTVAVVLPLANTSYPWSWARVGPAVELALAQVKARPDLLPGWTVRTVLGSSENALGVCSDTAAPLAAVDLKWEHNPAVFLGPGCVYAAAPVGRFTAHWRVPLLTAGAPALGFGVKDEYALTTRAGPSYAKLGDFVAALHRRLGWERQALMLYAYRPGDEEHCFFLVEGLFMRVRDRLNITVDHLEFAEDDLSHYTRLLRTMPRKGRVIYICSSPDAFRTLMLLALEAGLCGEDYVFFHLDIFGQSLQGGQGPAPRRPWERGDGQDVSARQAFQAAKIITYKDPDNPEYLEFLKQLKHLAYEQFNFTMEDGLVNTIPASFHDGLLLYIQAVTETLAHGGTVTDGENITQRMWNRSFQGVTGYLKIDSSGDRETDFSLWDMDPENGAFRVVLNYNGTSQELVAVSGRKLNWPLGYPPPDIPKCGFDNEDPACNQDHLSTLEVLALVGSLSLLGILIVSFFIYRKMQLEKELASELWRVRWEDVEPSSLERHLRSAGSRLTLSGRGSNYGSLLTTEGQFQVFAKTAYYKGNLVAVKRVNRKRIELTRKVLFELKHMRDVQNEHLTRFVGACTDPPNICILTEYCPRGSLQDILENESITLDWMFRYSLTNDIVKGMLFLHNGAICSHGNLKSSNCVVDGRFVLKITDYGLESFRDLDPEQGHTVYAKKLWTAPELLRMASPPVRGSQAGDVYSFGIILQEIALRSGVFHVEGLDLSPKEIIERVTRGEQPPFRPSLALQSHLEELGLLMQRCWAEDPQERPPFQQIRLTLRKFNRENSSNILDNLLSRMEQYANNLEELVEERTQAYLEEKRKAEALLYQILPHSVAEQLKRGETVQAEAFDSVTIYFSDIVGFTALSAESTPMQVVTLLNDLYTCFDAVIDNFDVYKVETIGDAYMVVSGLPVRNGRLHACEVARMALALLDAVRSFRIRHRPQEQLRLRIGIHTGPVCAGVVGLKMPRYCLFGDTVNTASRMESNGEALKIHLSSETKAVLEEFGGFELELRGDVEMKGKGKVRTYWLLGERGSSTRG
# T3 sequence (peptide): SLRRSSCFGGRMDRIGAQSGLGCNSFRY
# Legend:
# [1] = target: T1, human NPRA on HEK293 cells, without …; assay: FACS, HEK NPRA cells without ligand
# [2] = target: T2, rat NPRA on HEK cells bound to ANP; assay: KinExA whole cell binding (Kd,app), HEK cells with rat NPRA, ANP bound
# [3] = target: T2, rat NPRA on HEK cells bound to ANP; assay: cell-based or functional assay
# [4] = target: T3, human NPRA on HEK293 cells bound to ANP; assay: KinExA whole cell binding (Kd,app), HEK cells with human NPRA, ANP bound, 75 and 200 pM IgG
# Protocol: Initial species cross-reactivity studies are performed using HEK cell lines overexpressing rat, canine and rhesus monkey NPRA. […] These apparent Kd values are obtained by globally fitting the data for two antibody concentrations.
Binder,binding result [1],Kd [2] [nM],"Fold shift in EC50 of ANP (cGMP), HEK cells with rat NPRA [3] [fold]",Kd [4] [nM]
"5502 IgG4_Pro (antibody, V domains shown, Human IgG4_Pro) VH: QVQLQQSGPGLVKPSQTLSLTCAISGDSVSSRSASWSWIRQSPGRGLEWLGRIYYRSKWYNDYAVSVKSRITINPDTSKNQFSLQLNSVTPEDTAVYYCARMDVPSFRYFDVWGQGTLVTVSS VL: not shown",no binding (tested: 20 nM),,,
"5591 IgG4_Pro (antibody, V domains shown) VH: QVQLQQSGPGLVKPSQTLSLTCAISGDSVSSRSASWSWIRQSPGRGLEWLGRTYYRSHWYYEYAQSVKSRITINPDTSKNQFSLQLNSVTPEDTAVYYCARMDVPSFRYFDVWGQGTLVTVSS VL: not shown",,0.013,3,0.59
